Assays:
Test in all cases: holdup assay
Design in all cases: key: below the threshold = too weak to quantify, mostly under pKd 3.1 to 4
Conditions in all cases: plain residues with an end cap or a label only (N-terminal biotin on a linker: ado-ado)
GRID2IP_1, A4D2P6 = biological target: GRID2IP_1, A4D2P6
TJP1_3, Q07157 = biological target: TJP1_3, Q07157
NHERF4_4, Q86UT5 = biological target: NHERF4_4, Q86UT5
DLG3_1, Q92796 = biological target: T1, DLG3_1, Q92796
T1 sequence (Q92796 125-227, limits assumed, looked up): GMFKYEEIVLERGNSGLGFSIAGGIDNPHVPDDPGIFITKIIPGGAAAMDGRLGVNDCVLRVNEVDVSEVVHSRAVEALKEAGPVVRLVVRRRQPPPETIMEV

MPDZ_12, O75970 = biological target: T2, MPDZ_12, O75970
T2 sequence (O75970 1857-1958, limits assumed, looked up): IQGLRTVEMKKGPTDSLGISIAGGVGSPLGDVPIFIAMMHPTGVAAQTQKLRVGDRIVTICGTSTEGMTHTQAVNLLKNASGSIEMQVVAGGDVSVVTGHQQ

SCRIB_1, Q14160 = biological target: SCRIB_1, Q14160
AHNAK1, Q09666 = biological target: AHNAK1, Q09666
DLG1_3, Q12959 = biological target: DLG1_3, Q12959
LIN7B, Q9HAP6 = biological target: T3, LIN7B, Q9HAP6
T3 sequence (Q9HAP6 88-185, limits assumed, looked up): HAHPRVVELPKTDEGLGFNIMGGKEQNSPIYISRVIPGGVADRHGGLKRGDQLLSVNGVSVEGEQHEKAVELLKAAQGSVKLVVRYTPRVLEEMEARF

SNX27, Q96L92 = biological target: SNX27, Q96L92
SNTG2, Q9NY99 = biological target: T4, SNTG2, Q9NY99
T4 sequence (Q9NY99 68-166, limits assumed, looked up): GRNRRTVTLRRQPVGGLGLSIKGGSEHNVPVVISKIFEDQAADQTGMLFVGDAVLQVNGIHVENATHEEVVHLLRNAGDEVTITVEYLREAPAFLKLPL

FRMPD2_3, Q68DX3 = biological target: FRMPD2_3, Q68DX3
NHERF4_2, Q86UT5 = biological target: NHERF4_2, Q86UT5
PDZRN3_1, Q9UPQ7 = biological target: T5, PDZRN3_1, Q9UPQ7
T5 sequence (Q9UPQ7 244-349, limits assumed, looked up): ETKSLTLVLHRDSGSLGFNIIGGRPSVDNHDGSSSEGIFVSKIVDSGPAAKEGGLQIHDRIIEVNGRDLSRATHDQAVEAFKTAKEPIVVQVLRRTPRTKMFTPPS

DFNB31_1, Q9P202 = biological target: T6, DFNB31_1, Q9P202
T6 sequence (Q9P202 135-233, limits assumed, looked up): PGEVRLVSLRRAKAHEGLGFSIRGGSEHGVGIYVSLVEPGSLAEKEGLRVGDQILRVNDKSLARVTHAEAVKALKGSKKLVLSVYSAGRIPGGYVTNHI

Inadl_3, Q8NI35 = biological target: Inadl_3, Q8NI35
SIPA1L2, Q9P2F8 = biological target: T7, SIPA1L2, Q9P2F8
T7 sequence (Q9P2F8 945-1036, limits assumed, looked up): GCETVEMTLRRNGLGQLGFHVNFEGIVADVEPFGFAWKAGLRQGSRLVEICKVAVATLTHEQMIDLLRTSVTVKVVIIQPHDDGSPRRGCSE

NHERF3_3, Q5T2W1 = biological target: T8, NHERF3_3, Q5T2W1
T8 sequence (Q5T2W1 238-333, limits assumed, looked up): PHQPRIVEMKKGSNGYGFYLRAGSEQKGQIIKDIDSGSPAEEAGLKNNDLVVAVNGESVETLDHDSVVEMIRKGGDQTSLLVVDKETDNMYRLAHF

RAPGEF6, Q8TEU7 = biological target: T9, RAPGEF6, Q8TEU7
T9 sequence (Q8TEU7 525-625, limits assumed, looked up): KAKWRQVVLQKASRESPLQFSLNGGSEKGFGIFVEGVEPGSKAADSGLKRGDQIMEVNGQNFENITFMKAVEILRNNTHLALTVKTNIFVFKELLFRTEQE

Inadl_5, Q8NI35 = biological target: Inadl_5, Q8NI35
MPDZ_5, O75970 = biological target: T10, MPDZ_5, O75970
T10 sequence (O75970 695-796, limits assumed, looked up): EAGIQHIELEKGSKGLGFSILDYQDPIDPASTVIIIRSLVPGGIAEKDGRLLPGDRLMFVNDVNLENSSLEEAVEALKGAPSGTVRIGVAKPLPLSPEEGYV

DLG3_2, Q92796 = biological target: T11, DLG3_2, Q92796
T11 sequence (Q92796 221-321, limits assumed, looked up): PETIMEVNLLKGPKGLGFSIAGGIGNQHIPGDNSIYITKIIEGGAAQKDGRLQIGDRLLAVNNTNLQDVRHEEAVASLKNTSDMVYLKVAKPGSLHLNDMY

LDB3, O75112 = biological target: LDB3, O75112
MPDZ_10, O75970 = biological target: T12, MPDZ_10, O75970
T12 sequence (O75970 1624-1722, limits assumed, looked up): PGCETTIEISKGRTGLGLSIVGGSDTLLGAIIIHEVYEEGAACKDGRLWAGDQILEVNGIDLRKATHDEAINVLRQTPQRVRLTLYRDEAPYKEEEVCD

NHERF4_4, Q86UT5, sequence (Q86UT5 464-550): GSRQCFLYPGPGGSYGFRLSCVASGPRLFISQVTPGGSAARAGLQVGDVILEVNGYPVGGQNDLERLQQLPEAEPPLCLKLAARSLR
Inadl_3, Q8NI35, sequence (Q8NI35 359-469): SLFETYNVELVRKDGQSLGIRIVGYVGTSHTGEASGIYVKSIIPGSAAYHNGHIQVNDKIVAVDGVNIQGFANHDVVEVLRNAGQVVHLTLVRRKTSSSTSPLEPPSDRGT
AHNAK1, Q09666, sequence (Q09666 4-100): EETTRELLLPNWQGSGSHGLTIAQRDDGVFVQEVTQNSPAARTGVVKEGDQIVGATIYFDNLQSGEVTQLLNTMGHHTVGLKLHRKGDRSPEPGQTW
SCRIB_1, Q14160, sequence (Q14160 718-814): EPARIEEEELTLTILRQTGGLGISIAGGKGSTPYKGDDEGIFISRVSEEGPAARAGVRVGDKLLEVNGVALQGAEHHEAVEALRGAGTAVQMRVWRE
LDB3, O75112, sequence (O75112 1-94): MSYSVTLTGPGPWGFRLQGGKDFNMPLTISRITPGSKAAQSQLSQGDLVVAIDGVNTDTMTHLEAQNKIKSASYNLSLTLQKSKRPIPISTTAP
Inadl_5, Q8NI35, sequence (Q8NI35 673-780): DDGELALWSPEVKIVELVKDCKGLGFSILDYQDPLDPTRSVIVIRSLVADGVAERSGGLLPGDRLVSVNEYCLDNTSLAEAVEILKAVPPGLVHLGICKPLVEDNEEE
GRID2IP_1, A4D2P6, sequence (A4D2P6 1-87): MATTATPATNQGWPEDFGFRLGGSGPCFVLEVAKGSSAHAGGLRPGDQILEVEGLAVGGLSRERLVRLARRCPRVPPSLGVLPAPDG
DLG1_3, Q12959, sequence (Q12959 457-571): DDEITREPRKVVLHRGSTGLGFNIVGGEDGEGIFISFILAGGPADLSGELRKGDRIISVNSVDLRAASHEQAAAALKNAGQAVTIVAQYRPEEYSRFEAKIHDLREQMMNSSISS
FRMPD2_3, Q68DX3, sequence (Q68DX3 1073-1166): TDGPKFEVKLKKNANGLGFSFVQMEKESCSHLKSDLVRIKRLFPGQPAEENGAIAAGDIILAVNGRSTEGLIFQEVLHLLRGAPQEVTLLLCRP
TJP1_3, Q07157, sequence (Q07157 416-512): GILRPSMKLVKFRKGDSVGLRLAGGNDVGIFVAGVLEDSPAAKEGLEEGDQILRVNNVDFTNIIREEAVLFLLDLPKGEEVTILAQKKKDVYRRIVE
NHERF4_2, Q86UT5, sequence (Q86UT5 220-308): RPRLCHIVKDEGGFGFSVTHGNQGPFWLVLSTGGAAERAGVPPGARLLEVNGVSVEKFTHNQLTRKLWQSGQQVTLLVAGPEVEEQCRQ

Binder: QLSFNTDTLC [ABCA2, Q9BZC7]
- pKd (GRID2IP_1, A4D2P6): below the threshold
- pKd (TJP1_3, Q07157): below the threshold
- pKd (NHERF4_4, Q86UT5): below the threshold
- pKd (DLG3_1, Q92796): 3.61
- pKd (MPDZ_12, O75970): below the threshold
- pKd (SCRIB_1, Q14160): below the threshold
- pKd (AHNAK1, Q09666): below the threshold
- pKd (DLG1_3, Q12959): below the threshold
- pKd (LIN7B, Q9HAP6): 3.66
- pKd (SNX27, Q96L92): 4.17
- pKd (SNTG2, Q9NY99): below the threshold
- pKd (FRMPD2_3, Q68DX3): below the threshold
- pKd (NHERF4_2, Q86UT5): below the threshold
- pKd (PDZRN3_1, Q9UPQ7): below the threshold
- pKd (DFNB31_1, Q9P202): below the threshold
- pKd (Inadl_3, Q8NI35): below the threshold
- pKd (SIPA1L2, Q9P2F8): below the threshold
- pKd (NHERF3_3, Q5T2W1): below the threshold
- pKd (RAPGEF6, Q8TEU7): below the threshold
- pKd (Inadl_5, Q8NI35): below the threshold
- pKd (MPDZ_5, O75970): below the threshold
- pKd (DLG3_2, Q92796): 4.26
- pKd (LDB3, O75112): below the threshold
- pKd (MPDZ_10, O75970): below the threshold

Binder: EDLEDEWEVI [TECPR2, O15040]
- pKd (GRID2IP_1, A4D2P6): below the threshold
- pKd (TJP1_3, Q07157): below the threshold
- pKd (NHERF4_4, Q86UT5): below the threshold
- pKd (DLG3_1, Q92796): below the threshold
- pKd (MPDZ_12, O75970): below the threshold
- pKd (SCRIB_1, Q14160): below the threshold
- pKd (AHNAK1, Q09666): below the threshold
- pKd (DLG1_3, Q12959): below the threshold
- pKd (LIN7B, Q9HAP6): 3.74
- pKd (SNX27, Q96L92): below the threshold
- pKd (SNTG2, Q9NY99): below the threshold
- pKd (FRMPD2_3, Q68DX3): below the threshold
- pKd (NHERF4_2, Q86UT5): below the threshold
- pKd (PDZRN3_1, Q9UPQ7): below the threshold
- pKd (DFNB31_1, Q9P202): below the threshold
- pKd (Inadl_3, Q8NI35): 4.33
- pKd (SIPA1L2, Q9P2F8): below the threshold
- pKd (NHERF3_3, Q5T2W1): below the threshold
- pKd (RAPGEF6, Q8TEU7): below the threshold
- pKd (Inadl_5, Q8NI35): below the threshold
- pKd (MPDZ_5, O75970): below the threshold
- pKd (DLG3_2, Q92796): 4.09
- pKd (LDB3, O75112): below the threshold
- pKd (MPDZ_10, O75970): below the threshold

From article PMC9482650, “Quantitative fragmentomics allow affinity mapping of interactomes” (Nature Communications, 2022)
